Test: yeast display, Sf9 membrane polyspecificity reagent, FACS + sequencing; frameworks hold sequencing errors
Outline: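 Sorting gates, low and high (top ~1%), were placed on anti-HA fluorescence to track expression and on streptavidin fluorescence to track reagent binding. A clone's polyreactivity label is taken from the gate it came out of. The reagent was 10% biotinylated, detergent-solubilized Sf9 membrane, applied for 1 hour at 4 °C to galactose-induced yeast display cells.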

**Q.** For “QVQLVESGGGLVQAGGSLRLSCAASGFIFASYAMGWYRQAPGKERELVAAITQSGGITYYADSVKGRFTISRDNAKNTVYLQMTSLKPEDTAVYYCNTPLLKRTTRGRERNYWGQGTQVTVSS”, which “polyreactivity (PSR sort gate)” value is on record?
**A.** low polyreactivity

**Q.** With “QVQLVESGGGLVQAGGSLRLSCAASGFIFASYTMGRTRQAPGKERELVAAISRAGSTYYADSVKGRFTISRDNAKNTVYLQMNSLKPEDTAVYYCNAVSWRTSRYDYWGQGTQVTVSS” as the sequence, how does the “polyreactivity (PSR sort gate)” value read?
**A.** high polyreactivity

**Q.** For “QVQLVESGGGLVQAGGSLRLSCAASGFIFAVYGMGWYTQAPGKQRELVAAISTGDSTKYADSVKGRFTISRDNAKNTVYLQMNSLNPEDTAVYYCAADGPYEGYDYWGQGTQVTVSS”, which “polyreactivity (PSR sort gate)” value is on record?
**A.** high polyreactivity

**Q.** Which “polyreactivity (PSR sort gate)” value does the source give for “QVQLVESGGGLVQAGGSLRLSCAASGFIFAWSAMGWYRQAPGKERELVAAISYSGGSTFYADSVKGRFTISRDNAKNTVYLQMNSLKPEDTAVYYCARYYRALGTARNDYWGQGTQVTVSS” here?
**A.** low polyreactivity

**Q.** With “QVQLVESGGGLVQAGGSLRLSCAASGFIFAWYAMGWSRQAPGKERELVADISWGGGSTYYADSVKGRFTISRDNAKNTVYLQMNSLKPEDTAVYYCAATRPATYAAYDYWGQGTQVTVSS” as the sequence, how does the “polyreactivity (PSR sort gate)” value read?
**A.** high polyreactivity

**Q.** With “QVQLVESGGGLVQAGGSLRLSCAASGFIFAYNAMGWYRQAPGKERELVASIRTRGGSTYYADSVKGRFTISRDNAKNTVYLQMNSLKPEDTAVYYCAARPFPRRYDYWGQGTQVTVSS” as the sequence, how does the “polyreactivity (PSR sort gate)” value read?
**A.** low polyreactivity

**Q.** Which “polyreactivity (PSR sort gate)” value does the source give for “QVQLVESGGGLVQAGGSLRLSCAASGFIFAYYAMGWYRQATGKERELVAGITRGSSTYYADSVKGRFTISRDNAKNTVYLQMNSLKPEDTAVYYCARGYTWFYAVWPEYDYWGEGTQVTVSS” here?
**A.** high polyreactivity

**Q.** For “QVQLVESGGGLVQAGGSLRLSCAASGFIFDAYAMGWYRQAPGKERELVAAITRGNTYYADSVTGRFTISRDNAKNTVYLQMNSLKPEDTAVYYCAARYWQSYRSQVTHSSTLDYWGQGTQVTVSS”, which “polyreactivity (PSR sort gate)” value is on record?
**A.** low polyreactivity

**Q.** For “QVQLVESGGGLVQAGGSLRLSCAASGFIFDDNAMGWYRQAPGKERELVAAITSGGGSTYYADSVKGRFTISRDNAKNTVYLQMNSLKPEDTAVYYCARDQTWSYQPWYYLSYPQYEYWGQGTQVTVSS”, which “polyreactivity (PSR sort gate)” value is on record?
**A.** low polyreactivity

**Q.** Which “polyreactivity (PSR sort gate)” value does the source give for “QVQLVESGGGLVQAGGSLRLSCAASGFIFDDYAMGWYRQAPGKERELVAAISASGGRTFYADSVKGRFTISRDNAKNTVYLQMNSLKPEDTAVYYCATIVDTYVFRYYYWGQGTQVTVSS” here?
**A.** high polyreactivity

**Q.** For “QVQLVESGGGLVQAGGSLRLSCAASGFIFDFYAMGWYRQAPGKERELVATINSSGTTNYADSVKGRFTISRDNAKNTVYLEMISLKPEDTAVYDCATVEYLGHYTYDYWGQGTQVTVSS”, which “polyreactivity (PSR sort gate)” value is on record?
**A.** low polyreactivity

**Q.** Which “polyreactivity (PSR sort gate)” value does the source give for “QVQLVESGGGLVQAGGSLRLSCAASGFIFDIYAMGWYRQAPGKERELVASINWSGGDSTSYADSVKGRFTISRDNAKNTVYLQMNSLKPEDTAVYYCNAEYWSYAGGYPDEYDYWGQGTQVTVSS” here?
**A.** low polyreactivity

**Q.** Which “polyreactivity (PSR sort gate)” value does the source give for “QVQLVESGGGLVQAGGSLRLSCAASGFIFDIYAMGWYRQAPGKERELVASINWSGGDSTSYADSVKGRFTISRVNAKNTVSLQMNILKPEDTAVYYCIAEYWYYAGGYPDEYDYWGQGPQVTVSS” here?
**A.** low polyreactivity

**Q.** Which “polyreactivity (PSR sort gate)” value does the source give for “QVQLVESGGGLVQAGGSLRLSCAASGFIFDQNAMGWYRQAPGKERELVAAISKRGGSTYYADSVKGRFTISRDNAKNTVYLQMNSLKPEDTAVYYCATRSWGPYYYGYNHWGQGTQETVSS” here?
**A.** high polyreactivity

**Q.** For “QVQLVESGGGLVQAGGSLRLSCAASGFIFDRYAMGWYRQAPGKERELVAVISKSGGRTYYADSVKGRFTISRDHAKNTVYLQMNSLKPEDTAVYYCAAYYKSTYVTGDYWGQGTQVTVSS”, which “polyreactivity (PSR sort gate)” value is on record?
**A.** high polyreactivity

**Q.** For “QVQLVESGGGLVQAGGSLRLSCAASGFIFDSYAMGWYRQAPGKERELVAAISYSGGNTYYADSVKGRFTISRDNAKNTVYLQMNSLKPEDTAVYYCAAEWSDSRWWRLWWYGEDDYWGQGTQVTVSS”, which “polyreactivity (PSR sort gate)” value is on record?
**A.** high polyreactivity

**Q.** Which “polyreactivity (PSR sort gate)” value does the source give for “QVQLVESGGGLVQAGGSLRLSCAASGFIFDTYVMGWYRQAPGKERELVAAISRTGGRTYYADSVKGRFTISRDNAKNTVYLQMNSLKPEDTAVYYCAAKVYYPYLFTSYDYWGQGTQVTVSS” here?
**A.** high polyreactivity

**Q.** Which “polyreactivity (PSR sort gate)” value does the source give for “QVQLVESGGGLVQAGGSLRLSCAASGFIFDWNAMGWYRQAPGKERELVAAITWGGDGTFYADSVKGRFTISRDNAKNTVYLQMNSLKPEDTAVYYCAADSDSSFWWYYSWGQGTQVTVSS” here?
**A.** low polyreactivity

**Q.** Which “polyreactivity (PSR sort gate)” value does the source give for “QVQLVESGGGLVQAGGSLRLSCAASGFIFDYYAMGWYRHAPGKERELVAAITSRGGSTYYADSVKGRFTISRDNAKNTVYLQMNSLKPEDTAVYYCAARRRSAEYNYWGQGTQVTVSS” here?
**A.** high polyreactivity

**Q.** For “QVQLVESGGGLVQAGGSLRLSCAASGFIFDYYAMGWYRQAPGKERELVAAISGSGTSTYYADSVKGRFTISRDNAKYTVYLQMNSLKPEDTAVYYCSAESDWWSDIGYYWGQGTQVTVSS”, which “polyreactivity (PSR sort gate)” value is on record?
**A.** high polyreactivity

**Q.** With “QVQLVESGGGLVQAGGSLRLSCAASGFIFDYYAMGWYRQAPGKERELVAGISRRGGSTYYADSVKGRFTISRDNAKNTVYLQMNSLKPEDTAVYYCNADAWRKVPHPGTGGRDYWGQGTQVTVSS” as the sequence, how does the “polyreactivity (PSR sort gate)” value read?
**A.** high polyreactivity

**Q.** For “QVQLVESGGGLVQAGGSLRLSCAASGFIFDYYAMGWYRQAPGKEWELVAGITRDGSTNYADSVKGRFTISRDNAKNTVYLQMNSLKPEDTAVYYCAAGPPRTRYRNARFDYWGQGTQVTVSS”, which “polyreactivity (PSR sort gate)” value is on record?
**A.** high polyreactivity

**Q.** Which “polyreactivity (PSR sort gate)” value does the source give for “QVQLVESGGGLVQAGGSLRLSCAASGFIFEKYTMGWYRQAPGKERELVAAITWNGGSTYYADSVKGRFTISRDNAKNTVYLQMNSLIPEDTAVYYCARDDRDISGESGREGFLYDYWGQGTQVTVSS” here?
**A.** low polyreactivity

**Q.** Which “polyreactivity (PSR sort gate)” value does the source give for “QVQLVESGGGLVQAGGSLRLSCAASGFIFEPYAMGWYRQEPGKERELVAAISNSDSTNYADSVKGLFTISRDNAKNTVYLQMNSLKAEDTAVYYCNADFSKSYDYWGQGTQVTVSS” here?
**A.** low polyreactivity

**Q.** For “QVQLVESGGGLVQAGGSLRLSCAASGFIFESNAMGWYRQAPGKERELVAAITKRGGSTYYADSVKGRFTISRDNAKNTVYLQMNSLKPEDTAVYYCARYSSRYSSGYDYWGQGTQVTVSS”, which “polyreactivity (PSR sort gate)” value is on record?
**A.** high polyreactivity

**Q.** For “QVQLVESGGGLVQAGGSLRLSCAASGFIFESTAMGWYRQAPGKERELVAGISNGDSTDYADSVKGRFTISRDNAKNTCYLQMNSLNPEDTAVYYCNAELWYSPYSQTTVRYDYWGQVTQVTVSS”, which “polyreactivity (PSR sort gate)” value is on record?
**A.** low polyreactivity

**Q.** For “QVQLVESGGGLVQAGGSLRLSCAASGFIFEWNGMGWYRQAPGKERELVAAITWSGGSTYYADSVKGRFTISRDNAKNTVYLQMNSLKPEDTAVYYCNAYWKDDFEDGPGRRGMDYWGQGTQVTVSS”, which “polyreactivity (PSR sort gate)” value is on record?
**A.** low polyreactivity

**Q.** With “QVQLVESGGGLVQAGGSLRLSCAASGFIFEWYTMGWYRQAPGKERELVARISSDGSTTYADSVKGRFTISRDNAKNTVYLQMNSLNPEDTAVYYCAADVTYPGLIYIYDYWGQGTQVTVSS” as the sequence, how does the “polyreactivity (PSR sort gate)” value read?
**A.** low polyreactivity

**Q.** With “QVQLVESGGGLVQAGGSLRLSCAASGFIFEYNAMGWYRQAPGKERELVAAITSSGGSTYYADSVKGRFTISRDNAKNTVYLKMYSLKPEDTAVYYCARVRRSAYYKDYYYWGQGTQVTVSS” as the sequence, how does the “polyreactivity (PSR sort gate)” value read?
**A.** high polyreactivity

**Q.** With “QVQLVESGGGLVQAGGSLRLSCAASGFIFEYYAMGWYRQAPGKERELVAAISNGGGRTYYADSVKGRFTISRDNAKNTVYLQMNSLKPEDTAVYYCAAYWVYQRNSRTWEYDYWGQGTQVTVSS” as the sequence, how does the “polyreactivity (PSR sort gate)” value read?
**A.** high polyreactivity

**Q.** Which “polyreactivity (PSR sort gate)” value does the source give for “QVQLVESGGGLVQAGGSLRLSCAASGFIFEYYAMGWYRQAPGKERELVAAISRGGRTNYADSVKGRFTISRDNAKNTVYLQMNSLKPEDTAVYYCARDYTFYRQVRKYGYWGQGTQVTVSS” here?
**A.** high polyreactivity

**Q.** With “QVQLVESGGGLVQAGGSLRLSCAASGFIFFKYVMGWYRQAPGKERELVAAISTTGGRTYYADSVKGRFTISRDNAKNTVYLQMNSLKPEDTAVYYCAADYPVWNHGFDYWGQGTQVTVSS” as the sequence, how does the “polyreactivity (PSR sort gate)” value read?
**A.** high polyreactivity

**Q.** Which “polyreactivity (PSR sort gate)” value does the source give for “QVQLVESGGGLVQAGGSLRLSCAASGFIFFQYAMGWYRQAPGKERELVAAISGSGVTTYYADSVKGRFTISRDNAKNTVYLQMKSLKPEDTPVYYCAARPSGRGYYLLGYWGQGTQVTVSS” here?
**A.** low polyreactivity

**Q.** With “QVQLVESGGGLVQAGGSLRLSCAASGFIFFRNAMGWYRQAPGKERELVAAISSNGGRTYYADSVKGRFTISRDNAKNTVYLQMNSLTPEDTAVYYCAAANPGSEYDYWGQGTQVNVSS” as the sequence, how does the “polyreactivity (PSR sort gate)” value read?
**A.** high polyreactivity

**Q.** For “QVQLVESGGGLVQAGGSLRLSCAASGFIFFRYAMGWYRQAPGKERELVAAISSSGGSTYYADSVKGRFTISRDNAKNTVYLQMNSLKPEDTAVYYCAAPRYRIFVGLGMDYWGQGTQVTVSS”, which “polyreactivity (PSR sort gate)” value is on record?
**A.** high polyreactivity

**Q.** For “QVQLVESGGGLVQAGGSLRLSCAASGFIFFRYAMGWYRQAPGKERELVAAISTRTGITYYADSVKGRFTISRDNAKNTVYLQMNSLKPEDTAVYYCNVLRSHSLYPFWKYDYWGQGTQVTVSS”, which “polyreactivity (PSR sort gate)” value is on record?
**A.** high polyreactivity

**Q.** Which “polyreactivity (PSR sort gate)” value does the source give for “QVQLVESGGGLVQAGGSLRLSCAASGFIFGANAMGWYRPAPGKESELVAAISWNGGRTYYADSVKWRFTISRDNAKNTVYLQMNSLKPEDTAVSYCAATGWYGLPTSYRVNYWGQGTQVTVSS” here?
**A.** high polyreactivity

**Q.** With “QVQLVESGGGLVQAGGSLRLSCAASGFIFGANTMGWYRQAPGKERELVATISWSGGSTYYADSVKGRFTISRDNAKNTVYLQMNSLKPEDTAVYYCAAPGVTYGFRSDYWGQGTQVTVSS” as the sequence, how does the “polyreactivity (PSR sort gate)” value read?
**A.** low polyreactivity

**Q.** Which “polyreactivity (PSR sort gate)” value does the source give for “QVQLVESGGGLVQAGGSLRLSCAASGFIFGAYAMGWYRQAPGKERELVAAITKSGGRTYYADSVKGRFTISRDNAKNTVYLQMNSLKPEDTAVYFCAAVTRYPREYDYWGQGTQVTVSS” here?
**A.** high polyreactivity

**Q.** For “QVQLVESGGGLVQAGGSLRLSCAASGFIFGAYAMGWYRQAPGKERELVAAITRSGGNTYYADSVKGRFTISRDNAKNTVYLQMNSLKPEDTAVYYCNVVGVYHYEDYYYWGQGTQVTVSS”, which “polyreactivity (PSR sort gate)” value is on record?
**A.** high polyreactivity

From the nanobody polyreactivity screen of Harvey et al. (2022)
